Reference: the supplement of paper PMC11136658

System: peptide library, one residue held at a place counted from the Y acceptor
Test: relative phosphorylation of the sub-library (ratio to the mean residue at this position); higher = residue favoured
How it was run: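 Peptide library mixtures, biotinylated and centred on Tyr, each fixed one residue at one position from −5 to +5. Purified recombinant kinases were incubated with them for 90 min in 384-well plates alongside 50 μM ATP and γ-32P-ATP, and the captured, rinsed peptides on streptavidin membranes were measured by phosphorimaging and ImageQuant. Normalization divided each position's intensities by the sum of its 18 randomized residues (16 for the Ser/Thr-free library) and multiplied by that number, so that values give phosphorylation relative to the mean randomized residue.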

CSK, construct: Full length, human, sequence (P41240 whole entry, looked up): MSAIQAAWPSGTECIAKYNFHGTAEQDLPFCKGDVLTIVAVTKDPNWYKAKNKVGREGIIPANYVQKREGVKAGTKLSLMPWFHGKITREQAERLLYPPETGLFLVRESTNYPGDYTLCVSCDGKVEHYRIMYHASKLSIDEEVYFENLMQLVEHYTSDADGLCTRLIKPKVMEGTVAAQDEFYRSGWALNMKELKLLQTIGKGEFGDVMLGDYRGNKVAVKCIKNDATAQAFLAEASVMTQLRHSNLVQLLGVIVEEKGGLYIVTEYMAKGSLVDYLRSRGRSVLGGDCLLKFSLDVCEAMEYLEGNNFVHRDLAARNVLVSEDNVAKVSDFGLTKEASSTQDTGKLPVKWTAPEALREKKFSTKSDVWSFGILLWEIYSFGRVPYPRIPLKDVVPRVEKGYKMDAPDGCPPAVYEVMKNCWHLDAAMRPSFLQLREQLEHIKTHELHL
CSF1R, construct: aa539-end, human, sequence (P07333 539-972, looked up): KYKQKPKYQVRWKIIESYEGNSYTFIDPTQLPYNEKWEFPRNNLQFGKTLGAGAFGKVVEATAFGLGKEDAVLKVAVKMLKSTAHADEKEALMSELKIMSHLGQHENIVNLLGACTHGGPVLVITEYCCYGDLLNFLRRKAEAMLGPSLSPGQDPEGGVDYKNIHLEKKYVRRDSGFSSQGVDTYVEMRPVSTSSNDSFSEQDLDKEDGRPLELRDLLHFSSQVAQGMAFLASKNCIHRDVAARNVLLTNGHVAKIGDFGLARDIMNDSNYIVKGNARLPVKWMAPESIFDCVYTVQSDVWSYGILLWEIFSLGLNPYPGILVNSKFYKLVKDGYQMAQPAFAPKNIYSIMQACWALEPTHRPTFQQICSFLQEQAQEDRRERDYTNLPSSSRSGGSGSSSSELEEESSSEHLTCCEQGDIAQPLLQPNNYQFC

CSF1R, construct: aa539-end, human (from UniProt P07333)
relative phosphorylation
Details | at +1 | at +2 | at +3 | at +4 | at +5 | at -1 | at -2 | at -3 | at -4 | at -5
A fixed | 0.891 | 0.881 | 0.64 | 0.958 | 0.873 | 0.884 | 1.16 | 1.02 | 1.07 | 1.09
D fixed | 0.331 | 0.636 | 0.32 | 0.718 | 0.844 | 1.13 | 1.11 | 1.36 | 1.3 | 1.14
E fixed | 0.638 | 0.924 | 0.246 | 0.784 | 0.832 | 1.06 | 1.17 | 1.77 | 1.47 | 1.06
F fixed | 1.89 | 1.09 | 1.97 | 1.27 | 0.977 | 1.04 | 0.617 | 0.741 | 0.821 | 0.963
G fixed | 0.444 | 0.508 | 0.633 | 1.15 | 1.43 | 0.656 | 1.22 | 1.27 | 1.23 | 1.2
H fixed | 1.74 | 0.993 | 0.863 | 1.15 | 1.05 | 1.77 | 0.992 | 0.973 | 0.923 | 1
I fixed | 1.67 | 1.04 | 2.14 | 0.891 | 0.781 | 1.62 | 0.834 | 0.63 | 0.846 | 0.783
K fixed | 0.674 | 0.951 | 0.632 | 1.01 | 1.05 | 0.535 | 0.751 | 0.731 | 0.878 | 0.98
L fixed | 1.3 | 1.21 | 1.93 | 0.874 | 0.689 | 1.23 | 0.952 | 0.763 | 0.858 | 0.817
M fixed | 1.2 | 1.05 | 1.67 | 1.06 | 0.927 | 0.91 | 0.757 | 0.755 | 0.863 | 0.909
N fixed | 0.512 | 0.965 | 0.523 | 0.975 | 1.08 | 1.15 | 1.16 | 1.21 | 0.936 | 1.12
P fixed | 0.565 | 0.847 | 1.13 | 0.922 | 1.34 | 1.05 | 1.6 | 1.17 | 1.34 | 1.29
Q fixed | 0.973 | 0.989 | 0.519 | 0.965 | 0.931 | 0.919 | 1.03 | 1.07 | 0.921 | 0.93
R fixed | 0.745 | 1.31 | 0.929 | 1.36 | 1.2 | 0.474 | 0.844 | 0.786 | 0.782 | 0.871
S fixed | 0.721 | 0.893 | 0.604 | 1.02 | 1.24 | 0.687 | 1.2 | 1.14 | 0.97 | 1.03
T fixed | 0.938 | 1.11 | 0.856 | 1.04 | 1.07 | 1.08 | 1.08 | 1.12 | 0.899 | 1.01
V fixed | 1.56 | 1.11 | 1.47 | 0.851 | 0.756 | 1.12 | 0.939 | 0.748 | 0.866 | 0.859
W fixed | 1.2 | 1.49 | 0.91 | 1.01 | 0.928 | 0.678 | 0.575 | 0.745 | 1.02 | 0.943
pThr fixed | 0.739 | 1.17 | 0.232 | 0.432 | 0.567 | 1.02 | 0.996 | 1.2 | 1.12 | 0.956
pTyr fixed | 1.61 | 1.25 | 0.341 | 0.698 | 0.773 | 1.87 | 1.01 | 1.11 | 1.16 | 1

CSK, construct: Full length, human (from UniProt P41240)
relative phosphorylation
Details | at +1 | at +2 | at +3 | at +4 | at +5 | at -1 | at -2 | at -3 | at -4 | at -5
A fixed | 1.41 | 0.875 | 0.728 | 0.981 | 1.32 | 0.815 | 1.34 | 0.852 | 1.16 | 1.05
D fixed | 0.482 | 1.38 | 0.566 | 1.08 | 0.834 | 0.976 | 0.757 | 1.29 | 1.3 | 1.07
E fixed | 0.852 | 1.46 | 0.505 | 1.36 | 0.948 | 1.78 | 0.958 | 2.98 | 1.99 | 1.16
F fixed | 1.31 | 1.36 | 2.01 | 1.1 | 1.07 | 1.38 | 0.554 | 0.79 | 1.12 | 1.37
G fixed | 0.515 | 0.485 | 0.648 | 1.17 | 1.14 | 0.362 | 1.07 | 0.915 | 1.23 | 1.15
H fixed | 1.03 | 0.914 | 0.901 | 1.22 | 1.13 | 1.2 | 0.684 | 0.839 | 0.869 | 0.994
I fixed | 1.71 | 1.07 | 2.04 | 0.759 | 0.869 | 2.44 | 1.14 | 0.774 | 0.913 | 1.05
K fixed | 0.4 | 0.606 | 0.389 | 0.815 | 0.684 | 0.472 | 0.659 | 0.867 | 0.812 | 0.748
L fixed | 1.13 | 1.08 | 1.07 | 0.746 | 1.02 | 1.24 | 0.761 | 0.763 | 0.86 | 1.07
M fixed | 1.1 | 0.839 | 1.01 | 1.06 | 0.937 | 0.9 | 0.558 | 0.832 | 0.866 | 1.01
N fixed | 0.362 | 1.06 | 0.509 | 0.875 | 0.974 | 0.679 | 0.765 | 0.901 | 0.705 | 0.845
P fixed | 0.23 | 0.59 | 1.02 | 1.08 | 1.39 | 0.395 | 2.04 | 0.944 | 1.03 | 1.01
Q fixed | 0.988 | 0.791 | 0.607 | 0.992 | 0.954 | 0.691 | 0.952 | 0.772 | 1.07 | 0.839
R fixed | 0.524 | 0.757 | 0.46 | 0.859 | 0.717 | 0.409 | 0.738 | 0.976 | 0.758 | 0.735
S fixed | 0.787 | 0.978 | 0.734 | 0.868 | 1.14 | 0.533 | 1.47 | 0.958 | 0.826 | 0.943
T fixed | 0.803 | 0.829 | 0.689 | 0.879 | 1.07 | 0.926 | 1.16 | 0.918 | 0.715 | 0.897
V fixed | 1.67 | 1.03 | 1.6 | 0.831 | 0.769 | 1.65 | 1.81 | 0.769 | 0.778 | 0.831
W fixed | 2.7 | 1.9 | 2.52 | 1.34 | 1.03 | 1.16 | 0.576 | 0.859 | 1.01 | 1.22
pThr fixed | 1.23 | 1.87 | 0.582 | 1.12 | 0.922 | 1.02 | 0.787 | 1.35 | 1.03 | 1.02
pTyr fixed | 3.21 | 7.03 | 1.05 | 1.36 | 1.64 | 4.72 | 1.71 | 2.14 | 2.83 | 1.74
